Patent US20240307885

Target: Insulin from bovine pancreas, P01317
Sequence (P01317 85-105, chain 1 of 2): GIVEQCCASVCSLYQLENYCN
Sequence (P01317 25-54, chain 2 of 2): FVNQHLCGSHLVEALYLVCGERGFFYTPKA

B1: Protein disulfide isomerase from Thermoascus crustaceus (SEQ ID NO: 1) (protein)
chain: ADAESDVRSLKKDTFDDFIKEHDLVLAEFFAPWCGHCQALAPEYEAAASELKEKNIPLAKVDCTEEADLCKEHGVEGYPTLKVFRGLDSVKPYPGARKSAAIVSYMVKQSLPAVSTVTKENLEEFKTMDKVVIIGYIAPDDKTSNETFTAFADSKRDDYLFAATNDAALAKAEGVKQPSIVLYKDFDEKKDVFDGKFDQETMLSWVKTASTPLVGEIGPETYAGYMSAGIPLAFIFAETPEERQKLAADFKPIAEKHRGAINIVTIDAKAFGAYAGNLNLDPQKFPCFAIHDTVKNAKFPYDQSKEVNAKDIGQFVQEVLDGKVEPSIKSEPIPETQEGSVTVVVAHSYRELVIDNDKDVLLEFYAPWCGHCKALAPKYEELGRLYAENPDLASKVTVAKIDATANDVPDEIQGFPTIKLFPAGAKDSPVDYAGSRTVEDLANFIKENGKHKVDALSAATAKPEQGGDVTSTPSISSETTAETAAPTTDGSEHDEL
Insulin reduction assay with DTT, MALDI MS (worded result): in the presence of the PDI, a significant amount of the cystines are reduced resulting in separation of the insulin into the A peptide and B peptide
Insulin reduction assay with sulfite, MALDI MS (worded result): in the presence of the PDI, a significant amount of the cystines are reduced resulting in separation of the insulin into the A peptide and B peptide
Ratio (A chain): mass peak area of A peptide chain to intact insulin, MALDI MS; 2.5 µg/mL PDI, 0 mM DTT: 0.006
Ratio (A chain): mass peak area of A peptide chain to intact insulin, MALDI MS; 2.5 µg/mL PDI, 0 mM sulfite: 0.009
Ratio (A chain): mass peak area of A peptide chain to intact insulin, MALDI MS; 2.5 µg/mL PDI, 2 mM DTT: 0.035
Ratio (A chain): mass peak area of A peptide chain to intact insulin, MALDI MS; 2.5 µg/mL PDI, 2.9 mM sulfite: 0.027
Ratio (A chain): mass peak area of A peptide chain to intact insulin, MALDI MS; 5 µg/mL PDI, 0 mM DTT: 0.005
Ratio (A chain): mass peak area of A peptide chain to intact insulin, MALDI MS; 5 µg/mL PDI, 0 mM sulfite: 0.007
Ratio (A chain): mass peak area of A peptide chain to intact insulin, MALDI MS; 5 µg/mL PDI, 2 mM DTT: 0.07
Ratio (A chain): mass peak area of A peptide chain to intact insulin, MALDI MS; 5 µg/mL PDI, 2.9 mM sulfite: 0.05
Ratio (A chain): mass peak area of A peptide chain to intact insulin, MALDI MS; 10 µg/mL PDI, 0 mM DTT: 0.003
Ratio (A chain): mass peak area of A peptide chain to intact insulin, MALDI MS; 10 µg/mL PDI, 0 mM sulfite: 0.008
Ratio (A chain): mass peak area of A peptide chain to intact insulin, MALDI MS; 10 µg/mL PDI, 2 mM DTT: 0.172
Ratio (A chain): mass peak area of A peptide chain to intact insulin, MALDI MS; 10 µg/mL PDI, 2.9 mM sulfite: 0.104
Ratio (B chain): mass peak area of B peptide chain to intact insulin, MALDI MS; 2.5 µg/mL PDI, 0 mM DTT: 0.01
Ratio (B chain): mass peak area of B peptide chain to intact insulin, MALDI MS; 2.5 µg/mL PDI, 0 mM sulfite: 0.019
Ratio (B chain): mass peak area of B peptide chain to intact insulin, MALDI MS; 2.5 µg/mL PDI, 2 mM DTT: 0.109
Ratio (B chain): mass peak area of B peptide chain to intact insulin, MALDI MS; 2.5 µg/mL PDI, 2.9 mM sulfite: 0.055
Ratio (B chain): mass peak area of B peptide chain to intact insulin, MALDI MS; 5 µg/mL PDI, 0 mM DTT: 0.009
Ratio (B chain): mass peak area of B peptide chain to intact insulin, MALDI MS; 5 µg/mL PDI, 0 mM sulfite: 0.018
Ratio (B chain): mass peak area of B peptide chain to intact insulin, MALDI MS; 5 µg/mL PDI, 2 mM DTT: 0.185
Ratio (B chain): mass peak area of B peptide chain to intact insulin, MALDI MS; 5 µg/mL PDI, 2.9 mM sulfite: 0.083
Ratio (B chain): mass peak area of B peptide chain to intact insulin, MALDI MS; 10 µg/mL PDI, 0 mM DTT: 0.007
Ratio (B chain): mass peak area of B peptide chain to intact insulin, MALDI MS; 10 µg/mL PDI, 0 mM sulfite: 0.017
Ratio (B chain): mass peak area of B peptide chain to intact insulin, MALDI MS; 10 µg/mL PDI, 2 mM DTT: 0.335
Ratio (B chain): mass peak area of B peptide chain to intact insulin, MALDI MS; 10 µg/mL PDI, 2.9 mM sulfite: 0.17
